Test results taken from patent US20260191907A1.

How the values were obtained:
[1] = target: Recombinant FGFR4 (G&P Biosciences) (human) (UniProt P22455); test: SPR (BIAcore T200), single cycle kinetics, FGFR4 amine-immobilised (12'000 RU), negative control nanobody as analyte, heterogeneous ligand model, component 2 (kon2)
[2] = target: Recombinant FGFR4 (G&P Biosciences) (human) (UniProt P22455); test: SPR (BIAcore T200), single cycle kinetics, FGFR4 amine-immobilised (12'000 RU), negative control nanobody as analyte, heterogeneous ligand model, component 1 (koff1)
[3] = target: Recombinant FGFR4 (G&P Biosciences) (human) (UniProt P22455); test: SPR (BIAcore T200), single cycle kinetics, FGFR4 amine-immobilised (12'000 RU), negative control nanobody as analyte, heterogeneous ligand model, component 2 (koff2)
[4] = target: Recombinant FGFR4 (G&P Biosciences) (human) (UniProt P22455); test: SPR (BIAcore T200), single cycle kinetics, FGFR4 amine-immobilised (12'000 RU), negative control nanobody as analyte, heterogeneous ligand model, component 2 (KD2)
[5] = target: FGFR4 expressed on the surface of RMS cells (Rh4-FR4 wt, Rh30) (human) (UniProt P22455); test: flow cytometry, recombinant nanobody at 30 µg/ml on Rh4-FR4 wt cells, anti-6xHis-FITC detection; equals the background of the secondary antibody alone
[6] = target: Recombinant FGFR4 (G&P Biosciences) (human) (UniProt P22455); test: SPR (BIAcore T200), single cycle kinetics, FGFR4 amine-immobilised (12'000 RU), negative control nanobody as analyte, heterogeneous ligand model, component 1 (KD1)
[7] = target: Recombinant FGFR4 (G&P Biosciences) (human) (UniProt P22455); test: SPR (BIAcore T200), single cycle kinetics, FGFR4 amine-immobilised (12'000 RU), negative control nanobody as analyte, heterogeneous ligand model, component 1 (kon1)

Chain of Recombinant FGFR4 (G&P Biosciences) (human) (P22455 22-369 limits assumed): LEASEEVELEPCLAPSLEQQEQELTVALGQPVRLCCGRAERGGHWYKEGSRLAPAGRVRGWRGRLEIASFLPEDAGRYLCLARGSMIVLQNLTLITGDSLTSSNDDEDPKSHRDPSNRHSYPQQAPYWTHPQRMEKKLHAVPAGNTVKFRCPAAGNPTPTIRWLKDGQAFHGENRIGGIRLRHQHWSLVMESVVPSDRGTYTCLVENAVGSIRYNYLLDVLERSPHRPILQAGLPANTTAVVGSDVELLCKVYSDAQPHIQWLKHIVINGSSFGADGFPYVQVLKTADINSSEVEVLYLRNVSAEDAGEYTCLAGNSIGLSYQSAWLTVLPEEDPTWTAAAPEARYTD
Chain of FGFR4 expressed on the surface of RMS cells (Rh4-FR4 wt, Rh30) (human) (P22455 22-802 limits assumed): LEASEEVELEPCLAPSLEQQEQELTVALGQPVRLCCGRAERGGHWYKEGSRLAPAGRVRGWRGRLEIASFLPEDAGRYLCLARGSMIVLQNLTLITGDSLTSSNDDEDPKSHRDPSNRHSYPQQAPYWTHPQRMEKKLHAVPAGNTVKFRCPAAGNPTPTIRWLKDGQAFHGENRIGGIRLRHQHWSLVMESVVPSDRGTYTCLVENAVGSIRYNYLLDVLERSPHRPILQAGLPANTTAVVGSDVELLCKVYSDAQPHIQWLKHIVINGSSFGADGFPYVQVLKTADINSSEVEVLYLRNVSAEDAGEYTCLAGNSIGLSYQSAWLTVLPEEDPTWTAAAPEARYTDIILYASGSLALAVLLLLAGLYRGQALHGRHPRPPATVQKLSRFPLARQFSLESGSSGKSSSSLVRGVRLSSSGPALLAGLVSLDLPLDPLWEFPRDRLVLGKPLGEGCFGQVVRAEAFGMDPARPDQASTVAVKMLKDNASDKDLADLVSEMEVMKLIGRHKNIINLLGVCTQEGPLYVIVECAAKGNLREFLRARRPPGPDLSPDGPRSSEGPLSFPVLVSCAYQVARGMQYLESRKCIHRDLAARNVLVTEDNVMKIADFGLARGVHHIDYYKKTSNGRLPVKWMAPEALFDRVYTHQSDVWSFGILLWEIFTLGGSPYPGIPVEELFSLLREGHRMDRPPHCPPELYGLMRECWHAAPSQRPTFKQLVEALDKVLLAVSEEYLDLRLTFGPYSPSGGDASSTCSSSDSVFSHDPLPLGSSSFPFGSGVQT

- kon [1]: 2320 M⁻¹ s⁻¹
- koff [2]: 0.00511 s⁻¹
- koff [3]: 0.00505 s⁻¹
- Kd [4]: 2.18 µM
- median fluorescence intensity (MFI) [5]: 200 MFI
- Kd [6]: 1.96 µM
- kon [7]: 2600 M⁻¹ s⁻¹
Substance: anti-mCherry nanobody (negative control) (VHH)
